Data taken from patent US20080274112A1, “Nogo Receptor Antagonists” (priority 2003, published 2008).
Entries after “also recorded” stand apart in the source; their conditions may differ.

Columns and labels:
human Nogo receptor-1 = molecular target: T1, human Nogo receptor-1 (Homo sapiens, UniProt Q9BZR6); experiment: Immunohistochemical staining of fixed and live cells expressing human Nogo receptor-1; type: cell-based
T1 construct: expressed in transfected cells; host or cells: COS-7 or 293 cells
T1 sequence (Q9BZR6 27-447): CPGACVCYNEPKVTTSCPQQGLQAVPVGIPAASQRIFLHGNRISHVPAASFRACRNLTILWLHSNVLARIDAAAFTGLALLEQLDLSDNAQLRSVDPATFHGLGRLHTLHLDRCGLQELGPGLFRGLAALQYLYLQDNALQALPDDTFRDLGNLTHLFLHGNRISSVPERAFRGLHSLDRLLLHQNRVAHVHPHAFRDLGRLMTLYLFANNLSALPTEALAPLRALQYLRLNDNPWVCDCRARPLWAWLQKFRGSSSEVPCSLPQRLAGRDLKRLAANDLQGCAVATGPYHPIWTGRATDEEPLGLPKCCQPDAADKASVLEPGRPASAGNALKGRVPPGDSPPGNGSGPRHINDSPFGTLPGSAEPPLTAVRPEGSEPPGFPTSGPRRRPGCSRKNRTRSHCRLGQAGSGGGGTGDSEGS
Experimental: To further characterize the binding properties of anti-Nogo receptor-1 mAbs produced as described in Example 1, we compared binding to both fixed and live COS-7 or 293 cells expressing rat or human Nogo receptor-1.
Nogo receptor-1 transfected and non-transfected cells were plated in 8-well Lab-Tek® culture slides, fixed with 4% paraformaldehyde for 15 minutes, blocked with 10% normal goat serum, 0.1% Triton X-100 in PBS for 1 hour. Mab 7E11 was added at 15 μg/ml and 1.5 μg/ml in blocking solution and incubated for 2 hours at room temperature; Alexa®-conjugated secondary antibody anti-mouse (Molecular Probes) was incubated at a 1:300 dilution in blocking solution for 1 hour; DAPI was added at 5 μg/ml to the secondary antibody to label all nuclei.
Transfected and non-transfected cells were plated in 8 well Lab-Tek® culture slides, blocked with FACS buffer (containing 4% donor horse serum) for 30 minutes at 4° C., incubated with 7E11 at 15 μg/ml and 1.5 μg/ml in FACS buffer for 1 hour at 4° C., rinsed and incubated with secondary antibody anti-mouse-Alexa® (1:300 in FACS buffer) for 30 minutes at 4° C.

human NgR1 = molecular target: T2, human NgR1 (Homo sapiens, UniProt Q9BZR6); experiment: Antibody binding to human Nogo receptor-1
T2 sequence (Q9BZR6 27-447): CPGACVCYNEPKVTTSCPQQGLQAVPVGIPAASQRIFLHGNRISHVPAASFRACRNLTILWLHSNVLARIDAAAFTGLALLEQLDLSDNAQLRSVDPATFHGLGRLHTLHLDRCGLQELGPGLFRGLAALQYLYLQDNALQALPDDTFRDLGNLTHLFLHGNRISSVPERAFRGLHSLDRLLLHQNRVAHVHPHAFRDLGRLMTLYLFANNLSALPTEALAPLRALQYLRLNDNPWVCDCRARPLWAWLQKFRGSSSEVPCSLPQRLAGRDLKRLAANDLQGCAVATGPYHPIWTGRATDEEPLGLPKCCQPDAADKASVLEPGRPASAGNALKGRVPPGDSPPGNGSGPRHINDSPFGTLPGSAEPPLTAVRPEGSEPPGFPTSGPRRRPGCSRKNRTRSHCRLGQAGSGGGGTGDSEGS

[1] = molecular target: T3, rat NgR1 (sNgR310) fragments (Rattus norvegicus, UniProt Q99M75, A303T/C287S/E284G); experiment: Western blot of acid/CNBr fragments of sNgR310 probed with 7E11; type: binding
T3 construct: made in house
T3 sequence (Q99M75 241-310 E284G/C287S/A303T): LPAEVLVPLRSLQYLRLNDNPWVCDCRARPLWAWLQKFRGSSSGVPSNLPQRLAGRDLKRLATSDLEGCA
Experimental: (§1) A recombinant fragment of the rat NgR1 that contains all 8 LRR domains and the N- and C-terminal caps (sNgR310) was treated with either acid or cyanogen bromide (CNBr) and separated the fragments by gel electrophoresis. Untreated sNgR310 migrates with an apparent molecular weight of 42 kDa. Acid treatment of sNgR310 produced two major cleavage products of 15 kDa (aa 27-aa 122) and 30 kDa (aa 123-aa 310). CNBr treatment generated three fragments, a 33/35 kDa doublet (aa 27-aa 229), which may represent fragments with heterogeneous glycosylation, a 10 kDa product (aa 241-aa 310), and an 11-amino-acid fragment (aa 230-aa 240), which is not retained on the gel. […] Both the 15 kDa acid fragment and the 35 kDa CNBr fragment contained the sequence LDLSDNAQLRVVDPTT (SEQ ID NO: 1), consistent with 7E11 binding to a single epitope on NgR1.

[2] = molecular target: T4, rat NgR1 (sNgR310) fragments (Rattus norvegicus, UniProt Q99M75, A303T/C287S/E284G); experiment: as above; type: binding; remark: listed apart in the source
T4 construct: made in house
T4 sequence (Q99M75 123-310 E284G/C287S/A303T): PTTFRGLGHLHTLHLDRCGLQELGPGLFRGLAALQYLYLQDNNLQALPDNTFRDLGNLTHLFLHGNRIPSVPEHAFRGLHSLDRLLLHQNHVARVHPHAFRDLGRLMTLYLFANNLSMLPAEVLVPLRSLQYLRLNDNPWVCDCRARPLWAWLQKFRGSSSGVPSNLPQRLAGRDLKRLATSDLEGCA
Experimental: as §1

[3] = molecular target: T5, rat NgR1 (sNgR310) fragments (Rattus norvegicus, UniProt Q99M75, C43R/T53A); experiment: as above; type: binding
T5 construct: made in house
T5 sequence (Q99M75 27-229 C43R/T53A): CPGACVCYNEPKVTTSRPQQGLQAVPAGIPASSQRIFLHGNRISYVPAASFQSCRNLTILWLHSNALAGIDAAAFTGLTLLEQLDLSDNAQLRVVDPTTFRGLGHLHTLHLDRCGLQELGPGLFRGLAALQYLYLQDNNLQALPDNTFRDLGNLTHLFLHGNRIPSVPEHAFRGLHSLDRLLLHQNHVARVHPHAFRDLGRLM
Experimental: as §1

[4] = molecular target: T6, rat NgR1 (sNgR310) fragments (Rattus norvegicus, UniProt Q99M75, A303T/C287S/C43R/E284G/T53A); experiment: as above; type: binding
T6 construct: made in house
T6 sequence (Q99M75 27-310 C43R/T53A/E284G/C287S/A303T): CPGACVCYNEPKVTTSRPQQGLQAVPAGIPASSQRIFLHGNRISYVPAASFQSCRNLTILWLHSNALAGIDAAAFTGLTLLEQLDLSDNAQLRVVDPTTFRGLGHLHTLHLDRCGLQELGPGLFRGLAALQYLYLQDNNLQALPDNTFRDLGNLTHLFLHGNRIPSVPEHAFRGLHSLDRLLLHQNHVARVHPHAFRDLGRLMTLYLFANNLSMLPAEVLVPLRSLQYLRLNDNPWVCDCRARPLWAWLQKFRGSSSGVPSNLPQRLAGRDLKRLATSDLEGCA
Experimental: as §1

[5] = molecular target: T7, rat NgR1 (sNgR310) fragments (Rattus norvegicus, UniProt Q99M75, C43R/T53A); experiment: as above; type: binding; remark: listed apart in the source
T7 construct: made in house
T7 sequence (Q99M75 27-122 C43R/T53A): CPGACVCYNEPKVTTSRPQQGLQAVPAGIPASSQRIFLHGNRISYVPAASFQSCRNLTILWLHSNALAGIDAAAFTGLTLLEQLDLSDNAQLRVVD
Experimental: as §1

rat NgR1 = molecular target: T8, rat NgR1 (Rattus norvegicus, UniProt Q99M75); experiment: Antibody binding to rat Nogo receptor-1
T8 sequence (Q99M75 27-447): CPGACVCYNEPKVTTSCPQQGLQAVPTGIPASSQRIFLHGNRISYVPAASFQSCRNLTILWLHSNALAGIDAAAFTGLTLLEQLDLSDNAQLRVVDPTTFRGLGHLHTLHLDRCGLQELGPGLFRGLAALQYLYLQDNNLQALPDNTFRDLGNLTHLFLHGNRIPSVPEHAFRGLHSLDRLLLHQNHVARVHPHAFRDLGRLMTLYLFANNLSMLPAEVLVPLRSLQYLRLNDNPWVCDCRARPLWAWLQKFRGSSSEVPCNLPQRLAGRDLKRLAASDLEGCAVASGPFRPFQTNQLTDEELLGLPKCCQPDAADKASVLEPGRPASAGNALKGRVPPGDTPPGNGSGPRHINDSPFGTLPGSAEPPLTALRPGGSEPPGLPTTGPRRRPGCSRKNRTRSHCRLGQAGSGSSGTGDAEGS

B1: 7E11: murine monoclonal anti-Nogo receptor-1 antibody, IgG1 kappa, ATCC PTA-4587; immunogen rat Nogo receptor-1 residues 110-125 (antibody, V domains shown)
VH: VQLQESGAELVMPGASVKMSCKASGYTFTDYWMHWVKQRPGQGLEWIGAIDPSDSYSSYNQNFKGKATLTVDGSSSTAYMQLSSLTSEDSAVYYCARRITEAGAWFAYWGQGTTVT
VL: DVVMTQTPLSLPVSLGDQASISCRSSQSLVHSNGNTYLHWYLQKPGQSPKLLIYKVSNRFSGVPDRFSGSGSGTDFTLKISRVDAEDLGVYFCSQSTHVPFTFGGGTKLEIKRADAAPTVSISHH
binding to cells expressing human Nogo receptor-1 (human Nogo receptor-1): bound both fixed and live cells | binding to human NgR1 (human NgR1): bound; also recorded: binds well | 7E11 binding to 10 kDa CNBr fragment (aa 241-aa 310) [1]: did not bind | 7E11 binding to 30 kD acid fragment (aa 123-aa 310) [2]: did not bind | 7E11 binding to 35 kDa CNBr fragment (aa 27-aa 229) [3]: bound | 7E11 binding to intact rat NgR1 (aa 27-aa 310) [4]: bound | 7E11 binding to 15 kDa acid fragment (aa 27-aa 122) [5]: bound | binding to rat NgR1 (rat NgR1): bound; also recorded: binds well
